Reference: US8673850B2, “PCSK9 inhibitors and methods of use thereof” (Institut de Recherches Cliniques de Montreal, priority 2008, dated 2014)

Molecular target: PCSK9-V5 (Homo sapiens, UniProt Q8NBP7)
Experiment: Far Western blot with PCSK9-V5 conditioned media
Type: binding
Set-up: made in house; host or cells: CHO-K1 cells (conditioned medium, not purified)
Settings: lysates of cells overexpressing the construct
Procedure: Lysates (20 to 30 μg protein), media or purified AnxA2-(His)6 were heated in reducing or non-reducing Laemmli sample buffer, resolved by SDS-PAGE on 8% glycine gels and electro-transferred onto nitrocellulose membranes (GE Healthcare). Following 1 h incubation in 5% skim milk in Tris-Buffered Saline-0.1% Tween (TBST), membranes where incubated with conditioned media of CHO-K1 cells overexpressing either an empty vector (pIRES-V5), PC5A-V5, CHRD-V5, pIRES-D374Y, PCSK9-V5 or its V5-tagged mutants, or incubated with purified AnxA2-(His)6 for 3 h at room temperature. […] For competition experiments, 10 μg of His-tagged PCSK9 or CHRD were added to the PCSK9-V5 media before Far Western blotting. For PCSK9 binding requirements with the ˜33 kDa protein, 1M NaCl, 10 mg/ml heparin, 1M NaCl+10 mg/ml heparin, or 100 mM EDTA were added to the PCSK9-V5 conditioned media used for Far Western blotting.
Wild type human Annexin A2 (AnxA2) (ATCC #MGC-2257) and Annexin A1 (AnxA1) (ATCC #MGC-5095) were purchased from ATCC and subcloned into NheI/SacI digested pIRES2-EGFP vector. An HA epitope ([…]) was fused by PCR mutagenesis at the C-terminus of both AnxA1 and AnxA2. Two-steps PCRs were performed on AnxA2 cDNA to introduce point mutations (N62Q; S64A; K28S+D34N+E36S; R37S+E43H+K47M; 77RRTKK (SEQ ID NO: 26)>AATAK (SEQ ID NO: 27); ^77RRTKK (SEQ ID NO: 26)>AATAA (SEQ ID NO: 28); ^77RRTKKELASALK (SEQ ID NO: 29)>^77AATAAELASALA (SEQ ID NO: 30); 80KKELA (SEQ ID NO: 31)>GKPLD (SEQ ID NO: 32)), or amino acid (aa) deletions (Δ2-24, aa 2-24; ΔR1, aa 37-108; ΔR2, aa 109-192; ΔR3, aa 193-268; ΔR4, aa 269-339; Δ25-36, aa 25-36; Δ37-48, aa 37-48; Δ49-61, aa 49-61; Δ62-75, aa 62-75; Δ37-66, aa 37-66; Δ74-88, aa 74-88; Δ82-88, aa 82-88; Δ89-101, aa 89-101; Δ102-108, aa 102-108) into pIRES2-AnxA2-EGFP vector (see Table 3 above). In addition, using PCR, the AnxA2 segment aa 49-75 was swapped with the corresponding AnxA1 segment aa 58-84 [AnxA1 (aa 58-84)>AnxA2 (aa 49-75)]. Similar swaps were performed for the corresponding AnxA2 sequence with AnxA1 (AnxA1>AnxA2: aa 25-27; aa 28-30; aa 31-33; aa 34-36; aa 37-39; aa 40-42; aa 43-45; aa 46-48; aa 49-75; aa 49-61; aa 62-75). All final cDNA constructs were verified by DNA sequencing.

PCSK9-V5, sequence (Q8NBP7 153-692): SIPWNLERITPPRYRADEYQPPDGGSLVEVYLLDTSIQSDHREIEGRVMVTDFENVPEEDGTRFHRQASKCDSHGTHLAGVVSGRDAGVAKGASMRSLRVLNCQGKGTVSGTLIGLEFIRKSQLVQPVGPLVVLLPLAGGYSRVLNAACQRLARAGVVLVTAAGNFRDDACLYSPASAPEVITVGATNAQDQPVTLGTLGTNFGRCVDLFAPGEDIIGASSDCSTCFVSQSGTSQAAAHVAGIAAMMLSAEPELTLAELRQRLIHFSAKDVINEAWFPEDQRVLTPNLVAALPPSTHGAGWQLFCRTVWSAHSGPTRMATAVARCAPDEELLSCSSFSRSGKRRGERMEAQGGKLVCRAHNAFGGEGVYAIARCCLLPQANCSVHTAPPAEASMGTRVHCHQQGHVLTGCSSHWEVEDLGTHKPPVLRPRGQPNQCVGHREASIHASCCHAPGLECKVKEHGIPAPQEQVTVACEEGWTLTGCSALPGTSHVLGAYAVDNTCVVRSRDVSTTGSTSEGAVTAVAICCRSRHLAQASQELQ
PCSK9-V5, sequence (Q8NBP7 31-152 partner limits assumed): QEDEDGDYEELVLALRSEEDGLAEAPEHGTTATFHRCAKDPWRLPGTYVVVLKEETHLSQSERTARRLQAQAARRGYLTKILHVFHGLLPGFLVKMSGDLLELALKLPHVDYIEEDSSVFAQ

B1: ^77AATAK^81: AnxA2 point mutant 77RRTKK81 to AATAK (protein)
chain: MSTVHEILCKLSLEGDHSTPPSAYGSVKAYTNFDAERDALNIETAIKTKGVDEVTIVNILTNRSNAQRQDIAFAYQAATAKELASALKSALSGHLETVILGLLKTPAQYDASELKASMKGLGTDEDSLIEIICSRTNQELQEINRVYKEMYKTDLEKDIISDTSGDFRKLMVALAKGRRAEDGSVIDYELIDQDARDLYDAGVKRKGTDVPKWISIMTERSVPHLQKVFDRYKSYSPYDMLESIRKEVKGDLENAFLNLVQCIQNKPLYFADRLYDSMKGKGTRDKVLIRIMVSRSEVDMLKIRSEFKRKYGKSLYYYIQQDTKGDYQKALLYLCGGDDYPYDVPDYA
- PCSK9-V5 binding by Far Western blot: is critical for the AnxA2-PCSK9 binding

B2: 77AATAA81: AnxA2 point mutant 77RRTKK81 to AATAA (protein)
chain: MSTVHEILCKLSLEGDHSTPPSAYGSVKAYTNFDAERDALNIETAIKTKGVDEVTIVNILTNRSNAQRQDIAFAYQAATAAELASALKSALSGHLETVILGLLKTPAQYDASELKASMKGLGTDEDSLIEIICSRTNQELQEINRVYKEMYKTDLEKDIISDTSGDFRKLMVALAKGRRAEDGSVIDYELIDQDARDLYDAGVKRKGTDVPKWISIMTERSVPHLQKVFDRYKSYSPYDMLESIRKEVKGDLENAFLNLVQCIQNKPLYFADRLYDSMKGKGTRDKVLIRIMVSRSEVDMLKIRSEFKRKYGKSLYYYIQQDTKGDYQKALLYLCGGDDYPYDVPDYA
- PCSK9-V5 binding by Far Western blot: is critical for the AnxA2-PCSK9 binding

B3: 77AATAAELASALA88: AnxA2 point mutant 77…88 to AATAAELASALA (protein)
chain: MSTVHEILCKLSLEGDHSTPPSAYGSVKAYTNFDAERDALNIETAIKTKGVDEVTIVNILTNRSNAQRQDIAFAYQAATAAELASALASALSGHLETVILGLLKTPAQYDASELKASMKGLGTDEDSLIEIICSRTNQELQEINRVYKEMYKTDLEKDIISDTSGDFRKLMVALAKGRRAEDGSVIDYELIDQDARDLYDAGVKRKGTDVPKWISIMTERSVPHLQKVFDRYKSYSPYDMLESIRKEVKGDLENAFLNLVQCIQNKPLYFADRLYDSMKGKGTRDKVLIRIMVSRSEVDMLKIRSEFKRKYGKSLYYYIQQDTKGDYQKALLYLCGGDDYPYDVPDYA
notes: AnxA2 point mutant 77…88 to …
- PCSK9-V5 binding by Far Western blot: abolished binding of AnxA2 to PCSK9

B4: Δ102-108: AnxA2 deletion of aa 102-108 (protein)
chain: MSTVHEILCKLSLEGDHSTPPSAYGSVKAYTNFDAERDALNIETAIKTKGVDEVTIVNILTNRSNAQRQDIAFAYQRRTKKELASALKSALSGHLETVILGYDASELKASMKGLGTDEDSLIEIICSRTNQELQEINRVYKEMYKTDLEKDIISDTSGDFRKLMVALAKGRRAEDGSVIDYELIDQDARDLYDAGVKRKGTDVPKWISIMTERSVPHLQKVFDRYKSYSPYDMLESIRKEVKGDLENAFLNLVQCIQNKPLYFADRLYDSMKGKGTRDKVLIRIMVSRSEVDMLKIRSEFKRKYGKSLYYYIQQDTKGDYQKALLYLCGGDDYPYDVPDYA
- PCSK9-V5 binding by Far Western blot: abolished PCSK9 binding

B5: Δ37-66: AnxA2 deletion of aa 37-66 (protein)
chain: MSTVHEILCKLSLEGDHSTPPSAYGSVKAYTNFDAEQRQDIAFAYQRRTKKELASALKSALSGHLETVILGLLKTPAQYDASELKASMKGLGTDEDSLIEIICSRTNQELQEINRVYKEMYKTDLEKDIISDTSGDFRKLMVALAKGRRAEDGSVIDYELIDQDARDLYDAGVKRKGTDVPKWISIMTERSVPHLQKVFDRYKSYSPYDMLESIRKEVKGDLENAFLNLVQCIQNKPLYFADRLYDSMKGKGTRDKVLIRIMVSRSEVDMLKIRSEFKRKYGKSLYYYIQQDTKGDYQKALLYLCGGDDYPYDVPDYA
- PCSK9-V5 binding by Far Western blot: abolished PCSK9 binding

B6: Δ89-101: AnxA2 deletion of aa 89-101 (protein)
chain: MSTVHEILCKLSLEGDHSTPPSAYGSVKAYTNFDAERDALNIETAIKTKGVDEVTIVNILTNRSNAQRQDIAFAYQRRTKKELASALKLLKTPAQYDASELKASMKGLGTDEDSLIEIICSRTNQELQEINRVYKEMYKTDLEKDIISDTSGDFRKLMVALAKGRRAEDGSVIDYELIDQDARDLYDAGVKRKGTDVPKWISIMTERSVPHLQKVFDRYKSYSPYDMLESIRKEVKGDLENAFLNLVQCIQNKPLYFADRLYDSMKGKGTRDKVLIRIMVSRSEVDMLKIRSEFKRKYGKSLYYYIQQDTKGDYQKALLYLCGGDDYPYDVPDYA
- PCSK9-V5 binding by Far Western blot: abolished PCSK9 binding

B7: Δ82-88: AnxA2 deletion of aa 82-88 (protein)
chain: MSTVHEILCKLSLEGDHSTPPSAYGSVKAYTNFDAERDALNIETAIKTKGVDEVTIVNILTNRSNAQRQDIAFAYQRRTKKSALSGHLETVILGLLKTPAQYDASELKASMKGLGTDEDSLIEIICSRTNQELQEINRVYKEMYKTDLEKDIISDTSGDFRKLMVALAKGRRAEDGSVIDYELIDQDARDLYDAGVKRKGTDVPKWISIMTERSVPHLQKVFDRYKSYSPYDMLESIRKEVKGDLENAFLNLVQCIQNKPLYFADRLYDSMKGKGTRDKVLIRIMVSRSEVDMLKIRSEFKRKYGKSLYYYIQQDTKGDYQKALLYLCGGDDYPYDVPDYA
- PCSK9-V5 binding by Far Western blot: abolished PCSK9 binding

B8: Δ74-88: AnxA2 deletion of aa 74-88 (protein)
chain: MSTVHEILCKLSLEGDHSTPPSAYGSVKAYTNFDAERDALNIETAIKTKGVDEVTIVNILTNRSNAQRQDIAFSALSGHLETVILGLLKTPAQYDASELKASMKGLGTDEDSLIEIICSRTNQELQEINRVYKEMYKTDLEKDIISDTSGDFRKLMVALAKGRRAEDGSVIDYELIDQDARDLYDAGVKRKGTDVPKWISIMTERSVPHLQKVFDRYKSYSPYDMLESIRKEVKGDLENAFLNLVQCIQNKPLYFADRLYDSMKGKGTRDKVLIRIMVSRSEVDMLKIRSEFKRKYGKSLYYYIQQDTKGDYQKALLYLCGGDDYPYDVPDYA
- PCSK9-V5 binding by Far Western blot: abolished PCSK9 binding

B9: 80KKELA>GKPLD: AnxA2 with 80KKELA84 replaced by AnxA1 loop sequence 89GKPLD93 (protein, UniProt P07355 2-339, looked up, variant K80G E82P A84D)
Annexin A2: STVHEILCKLSLEGDHSTPPSAYGSVKAYTNFDAERDALNIETAIKTKGVDEVTIVNILTNRSNAQRQDIAFAYQRRTGKPLDSALKSALSGHLETVILGLLKTPAQYDASELKASMKGLGTDEDSLIEIICSRTNQELQEINRVYKEMYKTDLEKDIISDTSGDFRKLMVALAKGRRAEDGSVIDYELIDQDARDLYDAGVKRKGTDVPKWISIMTERSVPHLQKVFDRYKSYSPYDMLESIRKEVKGDLENAFLNLVQCIQNKPLYFADRLYDSMKGKGTRDKVLIRIMVSRSEVDMLKIRSEFKRKYGKSLYYYIQQDTKGDYQKALLYLCGGDD
- PCSK9-V5 binding by Far Western blot: had no appreciable effect on PCSK9 binding

B10: Δ62-75: AnxA2 deletion of aa 62-75 (protein)
chain: MSTVHEILCKLSLEGDHSTPPSAYGSVKAYTNFDAERDALNIETAIKTKGVDEVTIVNILTQRRTKKELASALKSALSGHLETVILGLLKTPAQYDASELKASMKGLGTDEDSLIEIICSRTNQELQEINRVYKEMYKTDLEKDIISDTSGDFRKLMVALAKGRRAEDGSVIDYELIDQDARDLYDAGVKRKGTDVPKWISIMTERSVPHLQKVFDRYKSYSPYDMLESIRKEVKGDLENAFLNLVQCIQNKPLYFADRLYDSMKGKGTRDKVLIRIMVSRSEVDMLKIRSEFKRKYGKSLYYYIQQDTKGDYQKALLYLCGGDDYPYDVPDYA
- PCSK9-V5 binding by Far Western blot: abolished PCSK9 binding
